Data taken from PMC4098843 (Nature communications, 2014).

Molecular target: the molecule itself
Assay: crystal structure

B1: AF2299, a CDP-alcohol phosphotransferase from Archaeoglobus fulgidus (enzyme, Archaeoglobus fulgidus DSM 4304, UniProt O27985 1-344, looked up)
chain: MRLAYVKNHEIYGEKLLGLTLRERIEKTLQRAGFDVRFFDELSLEEAEDYLIILEPVLILERDLLLEGRKILVSDGFTVGYFFGGDFRTVFDGNLQSSIEKYLSLNNLESYEIWAIKLSNDNLKTAEKLLLSSLIKAKRTGLKPAYYDGWIAREINRKVSLRISRLLADTSVTPNQITVFSFFLSLVGSALFLLNSYLTTLLAGVIIQLHSIIDGCDGEIARLKFMESKYGAWLDGVLDRYSDFIIVFSITYVLSASNPVYWIIGFLAAFASLMIAYTGDKFVAAYMRTYSPEGFAIPITRDFRLLIIFACSVVNLPSLALVIIALLGNFEALRRIVALRSYTN
stoichiometry N: 2
